From the supplement of paper PMC12636428

System: Saccharomyces cerevisiae
Assay: transcriptional activation domain activity (GFP:mCherry ratio, weighted mean of sorted bins, harmonized to initial dataset scale) (arbitrary fluorescence ratio units); higher = stronger transcriptional activation
Details: beta-estradiol 1 µM; induction time 4 h
Method: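 53-aa protein tiles (fungal proteins plus yeast TF control tiles) fused C-terminally to a DBD-estrogen-binding domain-mCherry synthetic TF, integrated in S. cerevisiae (URA3 locus) with a GFP reporter. Cells were induced with 1 uM beta-estradiol for 4 h at 30 C, FACS-sorted into 8 bins by GFP:mCherry ratio and barcodes sequenced. Activity is the read-weighted mean bin fluorescence (GFP:mCherry), averaged over barcodes (median 12); tiles under 50 reads were discarded. New active-learning values were harmonized by linear fit onto the scale of the initial (Hummel et al.) dataset. The assay saturates at low and high signal.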

With “ANDDDGEEQEEQEEKPKKKRKRTASTPAETAGAGPSKPKPRPRPKKTSAVVPP” the “transcriptional activation domain activity” value was 28200.
In the case of “SEGLLCPLPRYPPHPIVSQLMQTSALRSLQTIVQLQRAHFMTLLFWNILLAFY”, the “transcriptional activation domain activity” value is reported as 57100.
For “AEEGEEGRRKKGASKARSESGRSRIGGKRKEGEGEREGDEGRKKKRKKNKEKE”, the “transcriptional activation domain activity” value was 32800.
“RTTALGVWFLLIQSLWYFTFGALYIWFFCHTWEYLSTLLVFDYLLRFILCLMF” was tested, and the “transcriptional activation domain activity” value was 68100.
In the case of “KEDAGEAEAEGSGDKAEEAIAEKPKRGRKKAEPKEKAEPAAKPAVGRKKSVAE”, the “transcriptional activation domain activity” value is reported as 45700.
“SFKPAPAPAAEEAPKTEETPAPAETEAAAEEAKPAEEPKKEEVKEEPKRRSAS” was tested, and the “transcriptional activation domain activity” value was 35500.
With “MLLSLGPVLFSFGHPPLIHLCLVPHPVFFSYPFSLLFISPISSLDYFCFSFPF” the “transcriptional activation domain activity” value was 45400.
For “CPELYQTHLQITGIITIDTYFSFNDYDAWVQLRDVLDLWLGRAWVFNVVIWKY”, the “transcriptional activation domain activity” value was 61500.
“FITSLMLFQAVPCFLVHVIMLFPFFRNFPHQFRYRDPFTMVLLSFSFIFLFTF” was tested, and the “transcriptional activation domain activity” value was 62700.
In the case of “YMEIVCEKQLLVVSKVNRGWLYMAITQADLVYWATLSLASHYRDSKSVALTYF”, the “transcriptional activation domain activity” value is reported as 62500.
With “LWSHSILILACLIPYLVLRCSTYYCYQAISYIDSNDLAWSNVSIRFDVAMLVV” the “transcriptional activation domain activity” value was 69200.
“EKEEAEKKKKEEAEEKEKEKEKKEKKGGKKKRASKKSSRKSKSKEAAGSGADE” was tested, and the “transcriptional activation domain activity” value was 25500.
For “FMSDVGILRWSKLGMPIQSLYQAIWLTFWCSFPFIRDWSWTAQVFFTLHLLSI”, the “transcriptional activation domain activity” value was 43100.
“MSSNYENQAQQESDQGSSSKSQKSRHRASVACATCRERRIRCVVPAGEASCAQ” was tested, and the “transcriptional activation domain activity” value was 43100.
In the case of “RVSDYSMAQFRFLLKFLLVHGRWNYIRICKYTISTFWKELLFYLTQAMYQRWN”, the “transcriptional activation domain activity” value is reported as 28800.
“IPTPFASHAFNPVDGFLQSLPYHLYAYFIPMHKYLYLSMFVFVNFWTVMIHDG” was tested, and the “transcriptional activation domain activity” value was 58500.
“LMVDEPFEHRLFFLLLFQEGNVCQAQSFQLSGFECMCMVSSQFFFLVWVLYFM” was tested, and the “transcriptional activation domain activity” value was 45600.
In the case of “CVRVLCISFSLTLSSSCLLVGIVLRWSLCCLLYFVCVPLHLDTLLSFSSIPTL”, the “transcriptional activation domain activity” value is reported as 50600.
“NEEKGGKDAASRESAVHVYGTLGSRIGRGPRSPSVLSRSFHDIHDCLACVLVV” was tested, and the “transcriptional activation domain activity” value was 56900.
With “MVQNWEFFVFFFLPFNSFFSFFLPFCEVYMCAVCGLWCGSPGKLLGLFYFWFV” the “transcriptional activation domain activity” value was 36600.
In the case of “VSSSSSSSSRTRKGGGDDEEVEGKERSATENKKKKLGKKGRIAARTKEKAAAA”, the “transcriptional activation domain activity” value is reported as 6920.
With “LIIDVFPPPPPLLSLFFFLSLSLFFSSSFLLFSFASLLSVQLWRGLIVLFVFL” the “transcriptional activation domain activity” value was 62900.
“MHHELLRPILRLGHLMWTICFWMRRIMINAESPYRKTILHVRRSNWLFRRIIT” was tested, and the “transcriptional activation domain activity” value was 81600.
With “VFRLCLGDLFRPYGISLNVIRLMLMATGTDLDFYVPRSKWRQVLLFLRLASGY” the “transcriptional activation domain activity” value was 72200.
In the case of “MRRVTQQTGKGKIPSMYSLVVIGNGDGLVGYGEAKDDEPAAAREKATAKALRS”, the “transcriptional activation domain activity” value is reported as 46400.
With “SGGAPRGRGRGRREEKGRGRGRERGGRGRGGDRGRGRGRGRGVGGGSMGGGGG” the “transcriptional activation domain activity” value was 15900.
With “LENTNNNGSNVNAATNDTSASTNNINNNNAICQSASLLNDPLETLDFTKCIFA” the “transcriptional activation domain activity” value was 46900.
In the case of “NPMTFMGSTQRLAAIRNLRSNPKFLFVHLPNILSFLCIIVGVVWLLLLPLNEY”, the “transcriptional activation domain activity” value is reported as 33900.
“MAGAVPVLMLILLQLSHLCTAFKFYSESGFALVRKILLTALPTFEPHHYQMDG” was tested, and the “transcriptional activation domain activity” value was 64300.
With “MIPSSAPLNFFLPFPFQFWFFFDFFFLTVEQPFFLCVVFFLLAFYVMLLYFFI” the “transcriptional activation domain activity” value was 17900.
In the case of “YLEWLLLHHIHTIVGRRKDINWHIVCMDRWNIWYNTLRLSDTFALVGIIISIF”, the “transcriptional activation domain activity” value is reported as 58500.
In the case of “PANSSFVYVPMGWTLEVRNDGNPAIYAALLVRALLSRRVCRVGLLKHNTILVH”, the “transcriptional activation domain activity” value is reported as 51300.
With “AAKRKTRADEHEEDEEEEHREATVVRRARGRPRKVEAPEPEAPVRATRGRATK” the “transcriptional activation domain activity” value was 17000.
“FLVLRYGALIGHVPLFYNVFADPCKTPHLIHILAFYHYIFVFVLTALTTVLLV” was tested, and the “transcriptional activation domain activity” value was 49400.
In the case of “QCYNYLRVILMVSVGQGLARSVHWCMFLYQQGLDYVLWYYRNTLLLVSFLIGW”, the “transcriptional activation domain activity” value is reported as 62200.
For “SIEDMTGWKLLHGDVFRAPPNGNILAPLVGSGCQLVYMATGLLMLSCLGILNP”, the “transcriptional activation domain activity” value was 41600.
For “LVGDANGCRVLPAFQLWPLLSTFNLLYSISSTSWLLYWVFTSLCYPAIFLVCL”, the “transcriptional activation domain activity” value was 55700.
In the case of “KEVKEGEEGEKPKRGRKRKEAPAENGEKEPAAKKAKLASKAAPGSKPASKAAS”, the “transcriptional activation domain activity” value is reported as 28300.
In the case of “HAVTYWMCLELTIHLFYTFNRRSTLYFWSILVSICSIISMTILLELIIFVYPL”, the “transcriptional activation domain activity” value is reported as 56200.
With “INKGTNRFSETVLPPQMAAEQSWSDSNMELEICLDYLHNELEVIKKRQEDFEC” the “transcriptional activation domain activity” value was 60200.
For “PNIHSLHSLYTFRFLHIHSFHNLFFLPFFYFLYSLCFLHLPCFLSFLRFLHLL”, the “transcriptional activation domain activity” value was 63900.
With “ILVHCIRLWTGFLVACFACLILLICLGACNLEMGIVVWSFCLISAGLHSVAVG” the “transcriptional activation domain activity” value was 16500.
In the case of “GAVARAAHAAAPAGVRAAAPAPAGVHALAPAGAHALVHAPARAGPARALVLAG”, the “transcriptional activation domain activity” value is reported as 48800.
“IRCAKGFKSTDETKIFKTGQGGMKGNMYVTLSWNRWGKLLWATRIITRDFNPV” was tested, and the “transcriptional activation domain activity” value was 46000.
For “CRLYRLGFFVFLLVLSGLSFLSFYQVYRLFYFLLLFLFFSLFVFFSFCLILYF”, the “transcriptional activation domain activity” value was 57400.
“SFTRRLILWNVCALGIIIVLASRRLLRCILLRKKKFDDTMEFSMLSLIFDLCV” was tested, and the “transcriptional activation domain activity” value was 71800.
In the case of “SRVVYRDGRRHHYCVTSFDVLSSGILYIICGALDNIWLVTIERVVLSIMACRV”, the “transcriptional activation domain activity” value is reported as 81500.
In the case of “RKIVNEPREYLHAGNVKDNQGARQKKRRVGRGLGSGLGKTSGRGQKGWKARAP”, the “transcriptional activation domain activity” value is reported as 37000.
With “MSQFDFGLLFGQPFFLCSLVLFGLGWFITFIATCTIGSSPHLIWVEIFYNLFL” the “transcriptional activation domain activity” value was 58500.
With “LSADYLCQYSGSLIGKHFKSLAQVMPFIIYDLVPKTVLNAWNVIGNLVVMLWH” the “transcriptional activation domain activity” value was 46100.
For “MTVDHDFNSEDILFPIESMSSIQYVENNNPNNINNDVIPYSLDIKNTVLDSAD”, the “transcriptional activation domain activity” value was 76400.
For “WQTALVHKHAQRVIHSTLEVVDQLVPKHYDHQLLRRCWGALNLIMTYVSFMCV”, the “transcriptional activation domain activity” value was 41400.
With “ELLVLLDQHWNYSRLRYPICFLSRTASEMLTFVRSMMEWLGGTVSKEDVGEDG” the “transcriptional activation domain activity” value was 25800.
“DGYRNDNRGRNRRGNGRSRSPRGGKDSRNGTPPLTEDERDKRTIFVQQLAARL” was tested, and the “transcriptional activation domain activity” value was 57100.
For “NVLDASSVIARRAVETGGRNVPRGAAGGGAPRNRARGFELEIGNATLLGRRHN”, the “transcriptional activation domain activity” value was 29200.
“KKAAAALNGEAADGEATAEGEGAPKREPRAKKPRTPRPRRAPGEEPAGEPSKN” was tested, and the “transcriptional activation domain activity” value was 44900.
“HRVSMFLGYNPGNIVSNCRRCLDQWGPDILIHPSRIYLVVLPWLPPFFRKQLR” was tested, and the “transcriptional activation domain activity” value was 56400.
With “ILLMLATGQWRLLIDALVSMSDIEVQFFLRQLALCKLVNWKASIVNGYPSPVE” the “transcriptional activation domain activity” value was 52400.
“EVMKVTPVQKQTRAGQRTRFKAFVAIGDYDGHVGLGVKCAKEVASAIRGAIIL” was tested, and the “transcriptional activation domain activity” value was 48700.
In the case of “EQVAPKFWKHGLFWAMCNEGMWLKELEFYYMINYYFKYLELLDTVFLALKKKP”, the “transcriptional activation domain activity” value is reported as 40200.
“SGICRLTFSFSTLFFNPDPSFSFFLSFFFLFFFSFLLLSFLLNLFPFLDFFFF” was tested, and the “transcriptional activation domain activity” value was 24000.
With “DINSFTNQQQQAQDNPSFLPLDIEQSSYDLSEDAMSYPIISTQSNRDCTQYDN” the “transcriptional activation domain activity” value was 68700.
“LFFLSFFLGLFLFFFSLSLLLVPSSFFFLVFCLFLSFFFILSFFPRFLFFFFF” was tested, and the “transcriptional activation domain activity” value was 39700.
In the case of “SMLSYHLWMVMHAETSVESQDFHIYRKVAKRRGETFTNSYDLGKIRNLELFFN”, the “transcriptional activation domain activity” value is reported as 61200.
“RRTRYLVLCVALELISSILYLYLISIFGSLHLATFPLRLGFFFLLLSRLLCTM” was tested, and the “transcriptional activation domain activity” value was 35100.
“ERERDRDRDRERDRDRDRERAREREHERNHERRKRRRERDRERRRGKSAAAAA” was tested, and the “transcriptional activation domain activity” value was 33800.
With “MMHCLRYFLLLLFLPFPSAPPYLLLLFIVSMFLYHRPCAYCTFLIMSIFSATC” the “transcriptional activation domain activity” value was 76700.
In the case of “EATEPAEKPKRKRGRPPGSKNKKTLAAQGGTGEASAAEPPPKRPRGRPPKRKP”, the “transcriptional activation domain activity” value is reported as 34600.
In the case of “MFSHFNSSDLTSTFFFFMPVLGFILCPFFLLESMVCALVGWPCFLLSYCLPCL”, the “transcriptional activation domain activity” value is reported as 68900.
“MSSTPNCARQQPNRSESARNRTKDNCAACREKRLKCDKDGGRKTCSSDSQPSS” was tested, and the “transcriptional activation domain activity” value was 37400.
With “MGDCIKAHVFLLTFFYLYIHTHIFLFLFFIFLPFLLFSASSIYILFSFLFFPA” the “transcriptional activation domain activity” value was 32300.
With “MVCRDILHFWWMFISLNANAEDIIISRSSSWLSSPLLVCFLVVCNVVCVYFYI” the “transcriptional activation domain activity” value was 72800.
For “TDPKPITDNGKNVPLDEIESLEIPNLDLTTTMNGYDVNLLMQNLNDMVNMKLH”, the “transcriptional activation domain activity” value was 91600.
With “KKPAAKKQKTAPAEKINTTDDSKKARGRPKKADSNGTAKAAQKKKEPKAAATA” the “transcriptional activation domain activity” value was 32900.
“YKTLDSCCSQLEGYLSRFALKLSHTHLLHLQRLLTLLHAFIAFTKEWQHNARK” was tested, and the “transcriptional activation domain activity” value was 59400.
“YGFGGFLSVPLLFFIAFEFPRLHSLLYQLYLFVCVWSWAYYSTIIMFSCHFYP” was tested, and the “transcriptional activation domain activity” value was 57500.
For “KKKAAAEEDDEDDDEKVPAKKPAKRGRKKAADDEADEPQPPAKKAKKSPAKKT”, the “transcriptional activation domain activity” value was 55800.
With “GYDDTVVLDGCYAAAIRWKSFAYVSTAVRISWKRYLMRFLLRISPWLTIIFSV” the “transcriptional activation domain activity” value was 57600.
For “SERLKNTGASGERAREGISINAGLASLGKVISQLSSRQPGAHVSYRDSKLTRL”, the “transcriptional activation domain activity” value was 48800.
